Data as given in patent US20050008642A1.

Molecular target: IGF-IR on cells (HT29, NCI H322M human tumor cells; 3T3 cells transfected with IGF-IR) (human) (UniProt P08069)
Assay: cell-based or functional assay

Akt/PKB phosphorylation in the absence of IGF-I (Western blot): > 5 nM
Substance: αIR3 (antibody)
